The values below come from US20250326824A1.

Values joined by “and” are separate entries in the source; they are usually repeats but may differ in a detail not shown here. Identical values can stand only once.

Experiment in all cases: cell-based or functional assay
The target in test [1] is mHTTex1-72Q-eGFP (human) (UniProt P42858).
For test [2], the target named is human α-synuclein protein (human).
Test [3] deals with human α-synuclein-GFP (human).

UniProt P42858, sequence (P42858 other isoform, or with tags, fused parts or gaps): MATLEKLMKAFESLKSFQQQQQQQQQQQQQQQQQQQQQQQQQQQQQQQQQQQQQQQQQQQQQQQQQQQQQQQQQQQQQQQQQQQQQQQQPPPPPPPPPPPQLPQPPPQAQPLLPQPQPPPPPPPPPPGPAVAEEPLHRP

scFv-C4-hPEST: in test [1], the soluble mHTTex1-72Q-GFP by western blot (EM48/GAPDH, normalized to EV-CON) (% relative to control) fell in the range of 75 to 100.
As to scFv-C4-hPEST-E428A-E430A-E431A, the soluble mHTTex1-72Q-GFP by western blot (EM48/GAPDH, normalized to EV-CON) in test [1] was 50 to 75 % of control.
With scFv-C4-hPEST-S440A, the soluble mHTTex1-72Q-GFP by western blot (EM48/GAPDH, normalized to EV-CON) in test [1] is 25 % of control and 0 % of control.
On the same count and under the same terms, with scFv-C4-hPEST-E444A the figure was 50 to 75 % of control.
As to scFv-C4-hPEST-T436A, the soluble mHTTex1-72Q-GFP by western blot (EM48/GAPDH, normalized to EV-CON) (% relative to control) in test [1] lay in the range of 75 to 100.

B1: SS-PEN-DB1-PEST (VHH)
VHH: MEFGLSWLFLVAILKGVQGRQIKIWFQNRRMKWKKSRAEVQLQASGGGFVQPGGSLRLSCAASGFTSWEDTMGWFRQAPGKEREFVSAISFDANDLSDTSVYYADSVKGRFTISRDNSKNTVYLQMNSLRAEDTATYYCAVASFEILLYGESLHIYWGQGTQVTVSSAAAYPYDVPDYANPDFPPEVEEQDASTLPVSCAWESGMKRHRAACASASINV
With B1, in test [2], the reduction of endogenous synuclein by western blot, 3×SNCA cortical cultures given conditioned media was found to be 30%.

B2: SS-PEN-N77D-PEST (VHH)
VHH: MEFGLSWLFLVAILKGVQGRQIKIWFQNRRMKWKKSRQVQLVESGGGGLVQPGGSLRLSCVTPGGIFSDYAMGWYRQAPGKQRELVADITVSDTTRYSDPVKGRFTISRDNAKDMVYLQMNSLKPEDAAIYTCNAQKWEDRYGSSERYDYWGQGTQVTVSSAHHSEDPAAAYPYDVPDYNPDFPPEVEEQDASTLPVSCAWESGMKRHRAACASASINV
On to B2, for which, in test [2], the reduction of endogenous synuclein by western blot, 3×SNCA cortical cultures given conditioned media came out at 40% and the reduction of endogenous α-synuclein by western blot relative to SS-N77K-hP control, 3×SNCA cortical cultures stood at 40%. In test [3], this molecule gave a reduction of α-Syn˜eGFP by western blot, recipient ST14A cells given conditioned media of 20%.

B3: SS-435b-N77D-hP (VHH)
VHH: VQLVESGGGGLVQPGGSLRLSCVTPGGIFSDYAMGWYRQAPGKQRELVADITVSDTTRYSDPVKGRFTISRDNAKDMVYLQMNSLKPEDAAIYTCNAQKWEDRYGSSERYDYWGQGTQVTVSS
On to B3, for which the reduction of endogenous α-synuclein by western blot relative to SS-N77K-hP control, 3×SNCA cortical cultures in test [2] was found to be 40%.
